Measured values published in patent US20090070890A1 (AFFITECH, published 2009).
Each block holds one binder with its values, some of them ahead of it.

Key:
Recombinant ALCAM/Fc = target: T1, Recombinant ALCAM/Fc (UniProt Q13740 28-527, limits assumed); assay: Biacore T100; ALCAM/Fc (250 RU) amine-coupled to a CM5 chip; Fab at 3.9 to 125 nM; heterogeneous ligand model; Fab, not IgG; ALCAM/Fc on the chip
T1 construct: also called CD166 antigen (Biacore)
T1 sequence (looked up): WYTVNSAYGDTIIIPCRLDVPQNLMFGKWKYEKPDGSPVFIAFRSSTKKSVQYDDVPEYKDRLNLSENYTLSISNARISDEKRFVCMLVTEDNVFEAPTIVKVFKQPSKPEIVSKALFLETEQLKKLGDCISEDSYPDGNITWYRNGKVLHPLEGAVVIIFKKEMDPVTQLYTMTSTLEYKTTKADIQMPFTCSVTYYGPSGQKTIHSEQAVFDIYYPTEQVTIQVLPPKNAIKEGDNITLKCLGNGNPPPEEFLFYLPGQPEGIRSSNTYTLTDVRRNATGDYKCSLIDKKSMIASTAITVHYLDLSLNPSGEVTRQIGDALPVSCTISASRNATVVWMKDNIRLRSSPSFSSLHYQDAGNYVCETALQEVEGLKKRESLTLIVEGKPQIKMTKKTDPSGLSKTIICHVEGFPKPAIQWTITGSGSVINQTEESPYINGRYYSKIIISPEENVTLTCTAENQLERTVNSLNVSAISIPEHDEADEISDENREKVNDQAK
Experimental: Binding affinity of EJ212/007-Cl2-5 Fab fragments to the CD166 antigen was measured by Biacore analysis. Recombinant ALCAM/Fc (250RU) was immobilized by amine coupling to a CM5 chip. A range of concentrations of the Fab antibody, from 3.9 to 125 nM (nanomolar), were run over the chip. The binding affinity, expressed as the Kd, was calculated using the Heterogen ligand binding model in the Biacore T100 Evaluation software.

[1] = target: T2, CD166 (ALCAM, activated leukocyte cell adhesion molecule), native, of human tumor cell lines (human, UniProt Q13740 28-583); assay: photo-cross-linking of linker-coupled scFv to PM-1 cells, His-column and streptavidin-bead purification, blot detected with streptavidin-HRP
T2 construct: whole, on cells; The antigen was identified as CD166 by mass spectrometry of protein from PM-1 cells; also called CD166 antigen; MEMD
T2 sequence (looked up): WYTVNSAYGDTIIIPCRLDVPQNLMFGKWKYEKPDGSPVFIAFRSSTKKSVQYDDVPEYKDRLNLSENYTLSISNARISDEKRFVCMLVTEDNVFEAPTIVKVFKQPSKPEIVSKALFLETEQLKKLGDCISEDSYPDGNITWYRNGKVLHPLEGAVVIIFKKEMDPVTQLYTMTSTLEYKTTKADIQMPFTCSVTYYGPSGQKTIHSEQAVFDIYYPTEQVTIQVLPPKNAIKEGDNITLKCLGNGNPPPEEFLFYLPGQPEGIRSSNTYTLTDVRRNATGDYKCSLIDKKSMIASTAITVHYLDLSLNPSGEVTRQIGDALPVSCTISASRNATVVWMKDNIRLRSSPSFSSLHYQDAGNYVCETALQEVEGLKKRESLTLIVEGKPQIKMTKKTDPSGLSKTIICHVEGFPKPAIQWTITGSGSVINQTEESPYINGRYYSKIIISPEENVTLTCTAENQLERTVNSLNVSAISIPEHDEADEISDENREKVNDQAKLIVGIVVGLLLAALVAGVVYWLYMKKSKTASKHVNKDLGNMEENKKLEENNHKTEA
Experimental: PM-1 cells (2×10⁶) were incubated with 25 μg of the above linker coupled scFv. After washing with PBS the cells were exposed to UV light at 302 nm. This was followed by lysis of the cells by NP-40 in the presence of DNAsel. After incubation on ice SDS was added and the samples were loaded on a His-column. The column was washed in the presence of NP-40 and SDS and the protein of interest was eluted with 5 mM DTT in the same detergents. The eluted sample was then mixed with streptavidin beads and the beads were washed in the presence of SDS. The SDS concentrations was increased and the beads were incubated at 90° C. for five minutes. The supernatant was then run on a 7% SDS-PAGE, transferred to a PVDF membrane and detected with streptavidin-HRP.

[2] = target: T3, mouse recombinant CD166-Fc (R&D systems) (mouse, UniProt Q61490 28-527); assay: ELISA on coated mouse CD166-Fc
T3 construct: Bought reagent; also called mouse CD166-Fc; not shown: Fc part of the commercial chimera, not described
T3 sequence (looked up): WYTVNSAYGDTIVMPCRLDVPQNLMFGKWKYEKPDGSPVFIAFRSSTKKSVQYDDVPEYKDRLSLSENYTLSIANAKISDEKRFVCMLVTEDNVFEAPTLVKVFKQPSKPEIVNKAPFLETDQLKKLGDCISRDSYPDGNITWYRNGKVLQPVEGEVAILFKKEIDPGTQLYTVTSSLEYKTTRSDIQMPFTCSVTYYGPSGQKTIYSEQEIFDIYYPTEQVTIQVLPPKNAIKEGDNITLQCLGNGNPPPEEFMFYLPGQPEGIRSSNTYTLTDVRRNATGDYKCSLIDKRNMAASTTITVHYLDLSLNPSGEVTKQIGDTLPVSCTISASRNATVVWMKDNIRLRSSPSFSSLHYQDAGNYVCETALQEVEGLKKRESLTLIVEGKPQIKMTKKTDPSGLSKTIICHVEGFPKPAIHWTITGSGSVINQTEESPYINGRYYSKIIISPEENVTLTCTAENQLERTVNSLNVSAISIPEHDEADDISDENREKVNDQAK

[3] = target: T2, CD166 (ALCAM, activated leukocyte cell …); assay: western blot, non-reducing SDS-PAGE, probed with EJ212/007-Cl2-5 IgG and anti-human IgG-HRP
Description: Membrane proteins were isolated from two EJ212/007-Cl2-5 antigen-positive cell lines (PM-1 and DU-145; determined by FACS analysis) and concentrated by ultra-centrifugation. The membranes were resuspended in detergent (CHAPS/DOC) which was then removed from the sample by using Detergent Removing Resin (Pierce) in column format. The purified membrane proteins before and after sample concentration, and the cytosolic fraction were subsequently analysed by SDS-PAGE/Western under non-reducing conditions. The blot was probed with the EJ212/007-Cl2-5 IgG and corresponding secondary anti-human IgG coupled to HRP in order to visualise the proteins by chemiluminescence.

[4] = target: T4, human recombinant CD166-Fc (R&D systems), complete extracellular domain (human, UniProt Q13740 28-527); assay: ELISA, plate coated with 10 ug/ml CD166-Fc, detection with anti-kappa-HRP and ABTS, absorbance at 405 nm
T4 construct: extracellular domain; Bought reagent; also called recombinant CD166-Fc antigen; human CD166-Fc; not shown: Fc part of the commercial chimera, not described
T4 sequence (looked up): T1 sequence (looked up)
Experimental: Binding of the EJ212/007-Cl2-5 IgG to the CD166 antigen was tested in ELISA. An ELISA plate was coated overnight with 10 μg/ml of a commercially available recombinant CD166-Fc antigen (R&D systems), CD166 d1-5/Fc or CD166 d1-3/Fc. An IgG with irrelevant binding specificity was added to the ELISA as a negative control. After washing with PBS/0.05% Tween the plate was incubated for 1 hour with a dilution series of EJ212/007-Cl2-5 IgG ranging from 10 to 0.16 μg/ml. Detection of the bound IgG was done by incubation for 1 hour with 1 μg/ml anti-kappa-HRP and 15 minutes with the 1-step ABTS substrate (Pierce). The absorbance was measured at 405 nm.

- Kd (Recombinant ALCAM/Fc): 29 nM
B1: EJ212/007-Cl2-5 Fab (Fab, V domains shown)
VH: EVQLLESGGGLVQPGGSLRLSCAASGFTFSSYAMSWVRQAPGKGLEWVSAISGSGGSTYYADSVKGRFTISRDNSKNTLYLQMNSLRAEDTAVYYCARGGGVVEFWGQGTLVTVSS
VL: DIRMTQSPSFLSASVGDRVTITCRASQDISSYFAWYQQKPGKAPKLLIYAASTLRSGVPSRFSGSGSGTDFTLTISSLQPEDFATYYCQQSYSTPRITFGQGTRLEIK
notes: Fab format of EJ212/007-Cl2-5; The CH1 and CL of the Fab, and how it was made, are not described; also called EJ212/007-Cl2-5 Fab fragments; Fab antibody

- binding result [1]: binds
B2: scFv EJ212/007-Cl2-5 T68C (scFv, name in Kabat numbering)
scFv: EVQLLESGGGLVQPGGSLRLSCAASGFTFSSYAMSWVRQAPGKGLEWVSAISGSGGSTYYADSVKGRFCISRDNSKNTLYLQMNSLRAEDTAVYYCARGGGVVEFWGQGTLVTVSSKLSGSASAPKLEEGEFSEARVDIRMTQSPSFLSASVGDRVTITCRASQDISSYFAWYQQKPGKAPKLLIYAASTLRSGVPSRFSGSGSGTDFTLTISSLQPEDFATYYCQQSYSTPRITFGQGTRLEIK
modifications: Mts-Atf-LC-Biotin linker (Pierce 33083) coupled to the introduced Cys 68 (Kabat)
notes: Expressed in E. coli TG1; also called EJ212/007-Cl2-5 scFv (His-tagged) with a cysteine introduced by point mutation at position 68 (Kabat, RFCIS); linker coupled scFv

- binding result [2]: binds
- binding result [3]: binds
- binding result [4]: binds
B3: EJ212/007-Cl2-5 IgG (antibody)
heavy: not shown
light: DIRMTQSPSFLSASVGDRVTITCRASQDISSYFAWYQQKPGKAPKLLIYAASTLRSGVPSRFSGSGSGTDFTLTISSLQPEDFATYYCQQSYSTPRITFGQGTRLEIKRTVAAPSVFIFPPSDEQLKSGTASVVCLLNNFYPREAKVQWKVDNALQSGNSQESVTEQDSKDSTYSLSSTLTLSKADYEKHKVYACEVTHQGLSSPVTKSFNRGEC
notes: Human IgG1/kappa; also called IgG form of EJ212/007-Cl2-5; EJ212/007-Cl2-5 IgG antibody
